Measurements as given in US10596234B2, “Compositions and methods to inhibit viral replication” (priority 2016, dated 2020).
Numbering of substitutions follows the chain as printed. Names and notes keep the numbering of the source.

Experiments:
UL37C (571-1123) = biological target: T1, UL37C (571-1123) (Human herpesvirus 1, UniProt P10221); assay: Cysteine labeling with electrophile and tandem mass spectrometry; type: biochemical, HSV-1; settings: for C819 labeled by CNM: 45 minutes
T1 construct: bacterial purified UL37 (571-1123) was treated with N-methylacetamide; His; made in house; host or cells: E. coli BL21(DE3)
Description: […] Samples were then blocked with Iodoacetamide (Sigma) (50 mM) at room temperature for 1 h and subjected to Mass Spectrometry analysis (Poochon Scientific).

RIG-I [1] = assay: Two-dimensional gel electrophoresis of RIG-I deamidation in cells; type: cell-based, human; settings: 293T/RIG-I cells transfected with UL37, DON 10 μM
Description: Cells (1×10^6) were lysed in 150 μl rehydration buffer (8 M Urea, 2% CHAPS, 0.5% IPG Buffer, 0.002% bromophenol blue) by three pulses of sonication and whole cell lysates were centrifuged at 20,000 g for 15 min. Supernatants were loaded to IEF strips for focusing with a program comprising: 20 V, 10 h (rehydration); 100 V, 1 h; 500 V, 1 h; 1000 V, 1 h; 2000 V, 1 h; 4000 V, 1 h; 8000 V, 4 h. After IEF, strips were incubated with SDS equilibration buffer (50 mM Tris-HCl [pH8.8], 6 M urea, 30% glycerol, 2% SDS, 0.001% Bromophenol Blue) containing 10 mg/ml DTT for 15 min and then SDS equilibration buffer containing 2-iodoacetamide for 15 min. Strips were washed with SDS-PAGE buffer, resolved by SDS-PAGE, and analyzed by immunoblotting.

HSV-1 = HSV-1 plaque assay in HEK293 cells stably expressing RIG-I wild-type or mutants; type: cell-based; settings: HEK293 stable cells, HSV-1 MOI=0.5
RIG-I [2] = assay: In vitro ATPase activity assay; type: biochemical, human; settings: purified RIG-I proteins; for ATPase activity kcat: at physiological ATP concentrations; for ability to hydrolyze ATP: with or without 5′ppp-RNA
Description: (§1) Purified RIG-I or RIG-I mutants were incubated with 5′-ppp-dsRNA (Invivogen) at 37° C. for 20 min in ATPase reaction buffer (50 mM Tris-HCl, pH 7.5, 2.5 mM MgCl2, and ATP. Released phosphates were measured using a PiColorLock™ phosphate detection reagent (Innova Biosciences). For reactions with varying concentrations of ATP, the concentrations of RIG-I proteins and RNA were 20 nM and 80 nM, respectively. For reactions with varying concentrations of the RNA, the concentrations of RIG-I proteins and ATP were 20 nM and 500 μM, respectively.
as §1, with “ATP).” for “ATP.”

[3] = tested on: 5′-triphosphate 19mer dsRNA; assay: RNA electrophoresis mobility shift assay (EMSA); type: binding; settings: 32P-labeled 5′-triphosphate 19mer dsRNA
Description: RNA EMSA was performed as previously described (Takahasi et al., 2008). 5′-ppp-dsRNA and control dsRNA were purchased from Invivogen and bottom strands were labeled with γ-[P^32]ATP by T4 polynucleotide kinase (NEB). Purified RIG-I and RIG-I mutants were incubated with dsRNA at room temperature for 15 min. Binding buffer contains 20 mM Tris-HCl (pH=8.0), 1.5 mM MgCl2 and 1.5 mM DTT. Unlabeled ppp-dsRNA was used as competitor at 500-fold in excess. The reaction mixtures were run on 5% native polyacrylamide gels at a constant voltage of 200 V. Gels were dried and subjected to phosphorimaging.

PRDIII promoter = assay: Dual-luciferase reporter assay (PRDIII, SeV infection); type: cell-based, human; settings: 293T cells, SeV 100 HAU/ml
Description: HEK293T cells, seeded in 24-well plates (˜50% cell density), were transfected with IFN-β, PRDIII (ISRE) or NF-κB reporter plasmid cocktail (50 ng of luciferase reporter plasmid and 5 ng of pRL Renilla luciferase control vector) and expression plasmid (empty plasmid, one or multiple plasmids depending on the experiment) by calcium phosphate precipitation. Cells were infected with SeV (100 HA/ml), HSV-1 for 16 h, transfected with Poly [I:C] for 16 h or directly harvested 30-36 h post transfection. Whole cell lysates were used to determine the activity of firefly luciferase and renilla luciferase by a microplate reader (FLUOstar Omega).

Q: Which “C819 labeled by CNM” value (UL37C (571-1123); CNM 1 μM) does the source give for O=C(CCl)NCO [CNM, 2-Chloro-N-(hydroxymethyl) acetamide] here?
A: The value was 38.3%.

Q: What about the “C819 labeled by CNM” value (UL37C (571-1123); CNM 10 μM) of the same molecule?
A: The value was 42.5%.

Q: What about the “C850 labeled by CNM” value (UL37C (571-1123); CNM 1 and 10 μM) of the same molecule?
A: Its value is under 10%.

Q: Which “UL37-induced RIG-I deamidation in cells” value (RIG-I [1]) does the source give for [N-]=[N+]=CC(=O)CC[C@H](N)C(=O)O [DON, 6-diazo-5-oxo-L-norleucine, reference compound] here?
A: Its value is “inhibited RIG-I deamidation”.

B1: RIG-I-WT: wild-type RIG-I polypeptide, SEQ ID NO. 3 (protein, listed as Homo sapiens)
chain: MTTEQRRSLQAFQDYIRKTLDPTYILSYMAPWFREEEVQYIQAEKNNKGPMEAATLFLKFLLELQEEGWFRGFLDALDHAGYSGLYEAIESWDFKKIEKLEEYRLLLKRLQPEFKTRIIPTDIISDLSECLINQECEEILQICSTKGMMAGAEKLVECLLRSDKENWPKTLKLALEKERNKFSELWIVEKGIKDVETEDLEDKMETSDIQIFYQEDPECQNLSENSCPPSEVSDTNLYSPFKPRNYQLELALPAMKGKNTIICAPTGCGKTFVSLLICEHHLKKFPQGQKGKVVFFANQIPVYEQQKSVFSKYFERHGYRVTGISGATAENVPVEQIVENNDIIILTPQILVNNLKKGTIPSLSIFTLMIFDECHNTSKQHPYNMIMFNYLDQKLGGSSGPLPQVIGLTASVGVGDAKNTDEALDYICKLCASLDASVIATVKHNLEELEQVVYKPQKFFRKVESRISDKFKYIIAQLMRDTESLAKRICKDLENLSQIQNREFGTQKYEQWIVTVQKACMVFQMPDKDEESRICKALFLYTSHLRKYNDALIISEHARMKDALDYLKDFFSNVRAAGFEEIEQDLTQRFEEKLQELESVSRDPSNENPKLEDLCFILQEEYHLNPETITILFVKTRALVDALKNWIEGNPKLSFLKPGILTGRGKTNQNTGMTLPAQKCILDAFKASGDHNILIATSVADEGIDIAQCNLVILYEYVGNVIKMIQTRGRGRARGSKCFLLTSNAGVIEKEQINMYKEKMMNDSILRLQTWDEAVFREKILHIQTHEKFIRDSQEKPKPVPDKENKKLLCRKCKALACYTADVRVIEECHYTVLGDAFKECFVSRPHPKPKQFSSFEKRAKIFCARQNCSHDWGIHVKYKTFEIPVIKIESFVVEDIATGVQTLYSKWKDFHFEKIPFDPAEMSK
Q: Which results are given for B1?
A: reduction of HSV-1 replication / titer (HSV-1): ~50%; ATPase activity kcat (RIG-I [2]): 944 s⁻¹

B2: RIG-I-DD (protein)
chain: B1 chain with N495D, N549D
modifications: left off: small tags and cut ends
Q: Which results are given for B2?
A: reduction of HSV-1 replication / titer (HSV-1): marginal effect; ATPase activity kcat (RIG-I [2]): 32.6 s⁻¹; ability to hydrolyze ATP (RIG-I [2]): completely lost its ability to hydrolyze ATP; RNA-binding (RIG-I:RNA complex formation) [3]: significantly impaired in forming the fast migrating RIG-I:RNA complex

B3: RIG-I-N549D (protein, UniProt O95786 1-925, looked up, variant N549D)
Antiviral innate immune …: B1 chain with N549D, E580D
Q: How did the “ability to hydrolyze ATP” value (RIG-I [2]) turn out when B3 was run?
A: Its value is “basal or no ATPase activity”.

B4: RIG-I-N495D (protein, UniProt O95786 1-925, looked up, variant N495D)
Antiviral innate immune …: B1 chain with N495D, E580D
Q: How did the “ability to hydrolyze ATP” value (RIG-I [2]) turn out when B4 was run?
A: Its value is “basal or no ATPase activity”.

Q: What about the “RNA-binding (RIG-I:RNA complex formation)” value [3] of the same molecule?
A: The value was “comparable RNA-binding affinity to RIG-I-WT”.

B5: C850S (protein)
chain: MADRGLPSEAPVVTTSPAGPPSDGPMQRLLASLAGLRQPPTPTAETANGADDPAFLATAKLRAAMAAFLLSGTAIAPADARDCWRPLLEHLCALHRAHGLPETALLAENLPGLLVHRLVVALPEAPDQAFREMEVIKDTILAVTGSDTSHALDSAGLRTAAALGPVRVRQCAVEWIDRWQTVTKSCLAMSPRTSIEALGETSLKMAPVPLGQPSANLTTPAYSLLFPAPFVQEGLRFLALVSNRVTLFSAHLQRIDDATLTPLTRALFTLALVDEYLTTPERGAVVPPPLLAQFQHTVREIDPAIMIPPLEANKMVRSREEVRVSTALSRVSPRSACAPPGTLMARVRTDVAVFDPDVPFLSSSALAVFQPAVSSLLQLGEQPSAGAQQRLLALLQQTWTLIQNTNSPSVVINTLIDAGFTPSHCTHYLSALEGFLAAGVPARTPTGHGLGEVQQLFGCIALAGSNVFGLAREYGYYANYVKTFRRVQGASEHTHGRLCEAVGLSGGVLSQTLARIMGPAVPTEHLASLRRALVGEFETAERRFSSGQPSLLRETALIWIDVYGQTHWDITPTTPATPLSALLPVGQPSHAPSVHLAAATQIRFPALEGIHPNVLADPGFVPYVLALVVGDALRATCSAAYLPRPVEFALRVLAWARDFGLGYLPTVEGHRTKLGALITLLEPAARGGLGPTMQMADNIEQLLRELYVISRGAVEQLRPLVQLQPPPPPEVGTSLLLISMYALAARGVLQDLAERADPLIRQLEDAIVLLRLHMRTLSAFFECRFESDGRRLYAVVGDTPDRLGPWPPEAMGDAVSQYCSMYHDAKRALVASLASLRSVITETTAHLGVSDELAAQVSHEDNVLAVVRREIHGFLSVVSGIHARASKLLSGDQVPGFCFMGQFLARWRRLSACYQAARAAAGPEPVAEFVQELHDTWKGLQTERAVVVAPLVSSADQRAAAIREVMAHAPEDAPPQSPAADRVVLTSRRDLGAWGDYSLGPLGQTTAVPDSVDLSRQGLAVTLSMDWLLMNELLRVTDGVFRASAFRPLAGPESPRDLEVRDAGNSLPAPMPMDAQKPEAYGHGPRQADREGAPHSNTPVEDDEMIPEDTVAPPTDLPLTSYQ
Q: Which “blockade of SeV-induced PRDIII promoter activation” value (PRDIII promoter) does the source give for B5 here?
A: Its value is “greatly impaired blockade of PRDIII induction by SeV”.
